Experimental data published in patent publication US10398755B2, “Clusterin pharmaceuticals and treatment methods using the same” (UNIVERSITY OF SOUTHERN CALIFORNIA, priority 2009, dated 2019).

Key:
[1] = tested on: MMP-9 secreted from HCLE cells; assay: TNF-alpha induction of MMP-9 secretion from stratified HCLE cells (gelatin zymography); assay type: cell-based, human; conditions: clusterin 50 ug/ml with TNF-alpha 10 ng/ml, 24 hours
Experimental: (§1) HCLE cells were grown to be confluent in KSFM media and then replenished with DMAM/F12 media to stratify cells for 7 days. To these cells in serum-free DMEM/F12 media, clusterin (50 ug/ml), bovine serum albumin (BSA, 50 ug/ml), and TNF-alpha (10 ng/ml), individually or in combination, were treated for 24 hours. The same volume of supernatants of the cell cultures treated were collected to resolve on SDS/PAGE gel containing gelatin in order to perform gelatin zymography to visualize the presence of MMP-9 secreted from the cells.
as §1, with “cells. […] Therefore, Clusterin inhibits the induction of MMP-9 from human corneal limbal epithelial (HCLE) cells. (See FIG. 10)” for “cells.”

MMP-9 = assay: MMP inhibition assay (FRET peptide substrate), APMA-activated pro-MMP-9; assay type: biochemical
Experimental: Pro-MMP-9 (A) or pro-MMP-2 (C) was incubated with PBS, CLU (50 μg/ml, or 0.63 μM), SB3-CT (2 μM), or BSA (50 μg/ml), and MMP FRET substrate peptides in the presence and absence of […] APMA at RT for 3 h. RFU, relative fluorescence unit, was obtained by considering the read out in PBS as 100%. Each reaction was performed in triplicate. Standard errors were depicted as a bar in each graph. Differences between values of PBS and CLU or SB-3CT reactions were statistically significant by Student t-test: *P=0.0004, **P=0.0001, +P=0.0003, and ++P=0.01. Gelatin zymography was performed with the samples pooled from each reaction set. Pro-MMPs, processed MMPs (MMP-9 or MMP-2), and C-terminal truncated, processed MMP-9 (MMP-9-ΔC) were indicated by arrows. (B) Dose-dependent inhibition of MMP-9 by CLU or SB-3CT was performed in the same condition. MMPs were mixed with CLD in TSCB buffer, 50 mM Tris-HCI, pH, 7.5, 150 mM NaCl, 5 mM CaCl2, 0.002% Brij35 (or otherwise indicated concentration) 30 min prior to substrate addition, and incubated for 3 h at RT in the presence or absence of 0.02 mM p-aminophenylmercuric acetate (APMA). MMP activity was measured using a 5-FAM/QXL520 fluorescence resonance energy transfer (FRET) peptide as a substrate (EXlEm=490 nm/520 nm) (AnaSpec, Fremont, Calif.), according to the manufacturer's protocol. Relative fluorescence unit (RFU) was obtained by subtracting the values of APMA- or enzyme-omitted reactions from those of test samples, and then considering the fluorescence unit of a PBS (vehicle) sample as 100%. Enzyme reactions were performed in black 96-well plate, containing combinations of 10 ng, 5 ng, 5 ng, 10 ng, 2.5 μg, 2.5 μg of MMP-2, MMP-7, catalytic domain of MMP-9, MMP-9, CCLU, and/or BSA, respectively, in 50 μl reaction volume. As MMP substrates (0.4 μM), 520 MMP FRET substrate […] (SEQ ID NO: 9), was used for MMP-2 and MMP-9, and 520 MMP FRET substrate XIV, […] (SEQ ID NO: 10), used for MMP-7 reactions, both of which were purchased from AnaSpec (Fremont, Calif.). Recombinant proteins such as mouse CLU with C-terminal (His)6 (CLU-His), MMP-2, and MMP-7 were purchased from R&D Systems (Minneapolis, Minn.), MMP-9 was purchase from Ana-Spec, Inc. (San Jose, Calif.). The recombinant catalytic domain of human MMP-9 (residue 112-445) was purchased from ProtEra (Sesto Fiorentino, Italy). A gelatinase-specific synthetic inhibitor, SB-3CT, was obtained from Biomol International (Plymouth Meeting, Pa.). Fluorescence was monitored using a Victor^3TM V multilabel counter (PerkinElmer). For the gelatin digestion, a 50 μl mixture of gelatin (20 μg) and CLU (2 μg) was incubated with or without active MMP-9 (70 ng) for 2 hours at 37° C. The reaction products were run on a 12% denaturing SDS/PAGE gel for Coomasie staining. […] To determine whether MMP-9/CLU interaction affects the cleavage process of the propeptide of MMP-9 and/or interferes with enzymatic activity of the processed active enzyme, we performed an in vitro MMP-9 inhibition assay, by adopting FRET assay using a fluorescence-quenched peptide substrate (FIG. 3A). […] We incubated pro-MMP-9 with PBS, CLU, SB-3CT, or BSA, and a fluorescence peptide substrate in the presence or absence of APMA. […] We monitored the change in fluorescence value during the incubation of the reactions up to 3 h, which reflects the enzymatic activity of APMA-activated MMPs. […] At 3 h post incubation, the activity difference was read and reaction products were resolved by gelatin zymography. […]

B1: CLU: secreted disulfide-linked heterodimeric glycoprotein (70-80 KD); assays used recombinant mouse CLU with C-terminal (His)6 (protein, UniProt Q06890 22-448, looked up)
Clusterin: EQEVSDNELQELSTQGSRYINKEIQNAVQGVKHIKTLIEKTNAERKSLLNSLEEAKKKKEDALEDTRDSEMKLKAFPEVCNETMMALWEECKPCLKHTCMKFYARVCRSGSGLVGQQLEEFLNQSSPFYFWMNGDRIDSLLESDRQQSQVLDAMQDSFARASGIIDTLFQDRFFARELHDPHYFSPIGFPHKRPHFLYPKSRLVRSLMSPSHYGPPSFHNMFQPFFEMIHQAQQAMDVQLHSPAFQFPDVDFLREGEDDRTVCKEIRRNSTGCLKMKGQCEKCQEILSVDCSTNNPAQANLRQELNDSLQVAERLTEQYKELLQSFQSKMLNTSSLLEQLNDQFNWVSQLANLTQGEDKYYLRVSTVTTHSSDSEVPSRVTEVVVKLFDSDPITVVLPEEVSKDNPKFMDTVAEKALQEYRRKSRAE
modifications: C-terminal His6 tag
TNF-induced MMP-9 secretion [1]: inhibited TNF-induced MMP-9 secretion
average inhibition of MMP-9, three independent experiments in triplicate (MMP-9; 50 μg/ml of CLU, p=0.002): 35%
effect on APMA-induced processing of pro-MMP-9 (zymography) (MMP-9; APMA-treated reactions): did not affect the enzyme processing by APMA
inhibition of the activity of MMP-9 (MMP-9; CLU 50 μg/ml (0.63 μM), APMA, RT 3 h, 0.002% Brij 35, compared with PBS and BSA): 28%
dose-dependent inhibition of MMP-9, comparison with SB-3CT (MMP-9; FIG. 3B): stronger MMP-9 inhibitor than a synthetic gelatinase inhibitor, SB-3CT
MMP-9 inhibition at high detergent concentration (MMP-9; pro-MMP-9 or APMA-activated MMP-9, 0.04% Brij 35 or NP-40): little MMP-9 inhibition
